In US9540424B2, “Serum albumin binding molecules” (BRISTOL-MYERS SQUIBB COMPANY, priority 2010, dated 2017):

Legend:
CySA = molecular target: T1, CySA (Macaca fascicularis, UniProt A2V9Z4); experiment: SPR (Biacore T100) kinetics of FGF21-SABA1 fusions: CySA; format: binding, cynomolgous monkey; conditions: flow rate 30 μl/min
T1 construct: purchased Equitech-Bio CMSA
Protocol: (§1) The binding competency and thermodynamic characterization of FGF21-SABA fusion variants to human serum albumin were performed using Isothermal Titration calorimetry on a Microcal VP-ITC instrument (Microcal Inc. Amherst Mass., USA). […] The detailed experimental conditions are described below.
(§2) For the calorimetry assay, the FGF21-SABA variant SABA1-FGF21v1 (SEQ ID NO: 132) was used. […] For the SPR studies, SABA1-FGF21v1 and SABA1-FGF21v3 (SEQ ID NO: 134) were examined.
(§3) Serum albumins were dissolved in PBS buffer (10 mM sodium phosphate, 130 mM sodium chloride, pH 7.1) to a concentration of 10 mg/ml, and subsequently diluted to 8-10 μg/ml in 10 mM sodium acetate pH 5.0 for immobilization. Serum albumins were immobilized on a Series S CMS sensor chip using standard ethyl(dimethylaminopropyl) carbodiimide (EDC)/N-hydroxysuccinimide (NHS) chemistry in HBS-EP+ running buffer at 25° C., following general manufacturer guidelines. Flow cell 1 was activated with EDC/NHS and blocked with ethanolamine. […] Kinetic experiments were performed in PBS buffer containing 0.05% tween-20 (running buffer) at either 25° C. or 37° C. […] These samples were injected across flow cells 1-4 for 300 s, with a 420 s dissociation time, at flow rates of 30 μl/min or 60 μl/min to check for mass transfer limitation. All surfaces were regenerated with 2 pulses of 10 mM glycine pH 2.0 at 30 μl/min for 30 s. Raw sensograms were “double-referenced” by subtracting flow cell 1 data from flow cell 2, 3 or 4 data, and then subtracting a separate buffer cycle from each sensogram. The double-referenced sensogram data was fitted to a 1:1 Langmuir model using Biacore T100 Evaluation software version 2.0.2 to determine the association rate constant (ka), the dissociation rate constant (kd), and the equilibrium dissociation constant (KD).

HSA [1] = molecular target: T2, HSA (Homo sapiens, UniProt P02768); experiment: SPR (Biacore T100) kinetics of FGF21-SABA1 fusions: HSA; format: binding; conditions: flow rate 30 μl/min
Protocol: as §1, §2, §3

HSA [2] = molecular target: T2, HSA; experiment: Isothermal Titration calorimetry of SABA1-FGF21 fusion with HSA; format: binding; conditions: 37° C., PBS buffer
Protocol: as §1, §2
SABA-FGF21 fusion protein plus buffer was placed in the instrument sample cell at a concentration range of 0.4 to 1.0 mg/mL protein. The matching buffer was placed in the reference cell. Concentrations were determined using extinction coefficients calculated from the protein sequences of the pure proteins. The instrument reaction cell was equilibrated at 37° C. […] Data sets obtained were baseline-subtracted and corrected for the heat of dilution of the HSA injected into the cell. The resultant thermogram data was fitted using Origin™ evaluation software package (Microcal Inc.) version 2.0.2 to estimate the stochiometry, enthalpy, and equilibrium disassociation constant (KD) of the protein-protein binding reaction.

diabetic ob/ob mice = experiment: Acute and chronic effects of SABA1-FGF21v1 in diabetic ob/ob mice, 3 weeks daily treatment; format: in vivo, mouse
Text: Additional acute and chronic effects of SABA1-FGF21v1 were examined in the diabetic ob/ob mice. At study termination after 3 weeks of daily treatment, reductions in plasma glucose, insulin and total cholesterol were observed. Plasma alanine aminotransferase was reduced and β-hydroxybutyrate levels were elevated.

3T3-L1 adipocytes = experiment: pERK assay in 3T3-L1 adipocytes; format: cell-based, mouse
Protocol: 3T3-L1 cells (ATCC # CL-173) are mouse fibroblasts that can be differentiated into mouse adipocytes. Since β-klotho is expressed only in differentiated 3T3-L1 cells, it was necessary to first differentiate them before performing a β-klotho pERK 1/2 assay as described in Example B3.
The cells were grown in DMEM media (Invitrogen #12430-054) supplemented with 10% characterized fetal bovine serum (Hyclone # SH30071.03) and 1X Antibiotic-Antimycotic (Gibco #15240-096). Cells were cultured in a 37° C. incubator with 5% CO2. The sub-culturing procedure was followed as described in ATCC's product information sheet with the exception that TrypLE Express (Gibco #12605) was used instead of the Trypsin-EDTA solution.
Approximately 68 hours before differentiation, 5500 cells per well (in 150 μl media) were seeded into 96 well plates (Falcon #353072); cell numbers could be adjusted according to the time of the seeding and their doubling time, but cells were 100% confluent at the time the differentiation procedure was started. […]
At the ninth to tenth day of differentiation, the growth media was aspirated off the cells and cells were starved with 200 μl of DMEM (Invitrogen #12320-032) with 2% fetal bovine serum overnight. […] The plate was finally read on a PerkinElmer Envision 2103 Multilabel Reader, using standard Alpha Screening settings.

[3] = after 3 weeks of daily treatment

T1 sequence (A2V9Z4 25-608): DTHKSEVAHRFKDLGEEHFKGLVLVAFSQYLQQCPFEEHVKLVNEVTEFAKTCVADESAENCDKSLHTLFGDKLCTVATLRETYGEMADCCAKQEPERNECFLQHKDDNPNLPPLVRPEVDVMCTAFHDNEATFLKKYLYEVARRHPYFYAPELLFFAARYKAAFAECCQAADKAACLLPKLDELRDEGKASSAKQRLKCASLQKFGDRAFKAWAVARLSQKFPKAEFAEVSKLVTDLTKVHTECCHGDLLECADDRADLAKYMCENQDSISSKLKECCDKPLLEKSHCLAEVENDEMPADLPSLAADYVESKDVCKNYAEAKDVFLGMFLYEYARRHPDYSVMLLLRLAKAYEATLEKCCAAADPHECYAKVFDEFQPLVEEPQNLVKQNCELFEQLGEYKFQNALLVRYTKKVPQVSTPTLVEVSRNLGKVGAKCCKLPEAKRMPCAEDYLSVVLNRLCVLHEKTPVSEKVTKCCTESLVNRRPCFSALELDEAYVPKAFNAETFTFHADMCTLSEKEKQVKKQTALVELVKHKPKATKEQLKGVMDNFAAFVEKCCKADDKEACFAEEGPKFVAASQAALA

Molecule | ka (CySA; 25° C.) [M⁻¹ s⁻¹] | kd (CySA; 25° C.) [s⁻¹] | ka (CySA; 37° C.) [M⁻¹ s⁻¹] | kd (CySA; 37° C.) [s⁻¹] | ka (HSA [1]; 25° C.) [M⁻¹ s⁻¹] | kd (HSA [1]; 25° C.) [s⁻¹] | ka (HSA [1]; 37° C.) [M⁻¹ s⁻¹] | kd (HSA [1]; 37° C.) [s⁻¹] | N (stoichiometry) by isothermal titration calorimetry (HSA [2]) | Plasma alanine aminotransferase (diabetic ob/ob mice; [3]) | β-hydroxybutyrate levels (diabetic ob/ob mice; [3]) | oral glucose tolerance test (diabetic ob/ob mice; mouse, in vivo, po) | plasma glucose, insulin and total cholesterol (diabetic ob/ob mice; study termination after 3 weeks of daily treatment) | EC50 (3T3-L1 adipocytes) [nM] | Fold Activation (3T3-L1 adipocytes)
SABA1-FGF21v1: SABA1-FGF21 fusion, SEQ ID NO: 132; 293 aa; DNA SEQ ID NO: 184 (protein) MGVSDVPRDLEVVAATPTSLLISWHSYYEQNSYYRITYGETGGNSPVQEFTVPYSQTTATISGLKPGVDYTITVYAVYGSKYYYPISINYRTEIEKPSQGSGSGSGSGSGSGSPIPDSSPLLQFGGQVRQRYLYTDDAQQTEAHLEIREDGTVGGAADQSPESLLQLKALKPGVIQILGVKTSRFLCQRPDGALYGSLHFDPEACSFRELLLEDGYNVYQSEAHGLPLHLPGNKSPHRDPAPRGPARFLPLPGLPPALPEPPGILAPQPPDVGSSDPLSMVGPSQGRSPSYAS | 3930 | 0.0047 | 4440 | 0.0123 | 3380 | 0.000333 | 5960 | 0.00111 | 0.87 | reduced | elevated | increased capacity to handle a glucose load | reductions |  | 
His-tagged FGF21: non-fused His-tagged FGF21 (“FGFv1”; SEQ ID NO: 125) used as a comparator (protein, His6 tag) MHHHHHHPIPDSSPLLQFGGQVRQRYLYTDDAQQTEAHLEIREDGTVGGAADQSPESLLQLKALKPGVIQILGVKTSRFLCQRPDGALYGSLHFDPEACSFRELLLEDGYNVYQSEAHGLPLHLPGNKSPHRDPAPRGPARFLPLPGLPPALPEPPGILAPQPPDVGSSDPLSMVGPSQGRSPSYAS |  |  |  |  |  |  |  |  |  |  |  |  |  | 4 ± 2 | 2.1 ± 0.2
